# Measured values from the DeepSol protein solubility set.
# Test: soluble on expression in E. coli; label from the status in PepcDB or PDB records
row,Sequence,soluble on expression in E. coli
1,MGSHHHHHHDITSLYKKAGSAAAVLEENLYFQGSFTMRRKVFEELVTATKILLNEGIMDTFGHISARDPEDPASFFLAQKLAPSLITVDDIQRFNLDGETSDNRPSYLERYIHSEIYKTRPDVQCVLHTHSPAVLPYCFVDTPLRPVTHMGAFIGESVPVYEIRDKHGDETDLFGGSPDVCADIAESLGSQTVVLMARHGVVNVGKSVREVVFRAFYLEQEAAALTAGLKIGNVKYLSPGEIKTAGKLVGAQIDRGWNHWSQRLRQAGLA,soluble
2,MGSHHHHHHMGQSVEVEILLNDAESRKRAEHKTEDGKKEKYFLFYDGETVSGKVSLSLKNPNKRLEHQGIKIEFIGQIELYYDRGNHHEFVSLVKDLARPGEITQSQAFDFEFTHVEKPYESYTGQNVKLRYFLRATISRRLNDVVKEMDIVVHTLSTYPELNSSIKMEVGIEDCLHIEFEYNKSKYHLKDVIVGKIYFLSVEIKIKHMEIDIIKRETTGTGPNVYHENDTIAKYEIMDGAPVRGSSIPIRLFLAGYELTPTMRDINKKFSVRYYLNLVLIDEEERRYFKQQEVVLWRKGDIVRKSMSHQAAIASQRFEGTTSLGEVRTPGQLSDNNSRQ,soluble
3,MGSLEKFNLIDEPWIPVLKGGRVVEVGIGEALLRAHEFARIETPSPLEEAVLHRLLLAVLHRALSGPRCPEDVLDWWRKGGFPQDPIRDYLNRFRDRFFLFHPEAPFLQVADLPEENPLPWSKLLPELASGNNPTLFDHTTEENLPKATYAQAARALLVHQAFAPGGLLRRYGVGSAKDAPVARPALFLPTGQNLLETLLLNLVPYTPEDDAPIWEVPPLRLGDLEGARTKWPLTGRTRVYTWPARGVRLLDEGDGVRFMGYGPGVEPLEATHRDPMVAQRLDAKGNLLVLRLSEERSFWRDFSAMLPRQGGKVAATLEHAENLQGELEDEGLEGRITLRVLGQVSDQAKVLDIRREVYPLPSGLLTPKAEENLEKALKMAEELGQGLKHLAQEVAKAVVGERDRGHGRSPYLEELTKLANSLPLERLYWHALDGAFPRFFARVEEEASLDLWREALRGAALEAWKATRRFLGTGARHLKALAQGEQEFGRLLGELGEEVRT,soluble
4,MGSRSSHAAVIPDGDSIRRETGFSQASLLRLHHRFRALDRNKKGYLSRMDLQQIGALAVNPLGDRIIESFFPDGSQRVDFPGFVRVLAHFRPVEDEDTETQDPKKPEPLNSRRNKLHYAFQLYDLDRDGKISRHEMLQVLRLMVGVQVTEEQLENIADRTVQEADEDGDGAVSFVEFTKSLEKMDVEQKMSIRILKHHHHHH,soluble
5,MGSSHHHHHHGGTGENLYFQGGSGAGIKSRERLRRDQERQLRQLPFLYHRVKDLQDTCERLEQELASSHQRVAAFQQEAFALRSLIKFTEHPELAAAAKNDAAKHVLQEEVRELRNQVQRLRREKELSLRQSEEACEAAEFYKELCDQLYEESLRAAEAIAVGGATSGLESVVTPLPNRNVDDMTLAVSTAPSTATSMEAQMRQLHGALELERARSSALVETVSLLHTAMKATTAAGTKRSTPAPDSSAGWAERRREDDTSGICASRSRVFADDTRKSRTRLKRLAAVLRVENRLLTQRVTEVVARNMRCVKEISALKLANKRLELNQRQES,soluble
6,MGSSHHHHHHGGTGENLYFQGGSGAKKHLKRLYAPKDWMLSKLTGVFAPRPRPGPHKLRECLPLLVIIRNRLKYALNAREGEMILRQGLVHVDNHPRRDGKYPAGFMDVVEIPKTGDRFRLMYDVKGRFALVNLSEAEAQIKLMKVVNLYTATGRVPVAVTHDGHRIRYPDPHTSIGDTIVYNVKEKKCVDLIKNRQGKAVIVTGGANRGRIGEIVKVECHPGAFNIAHLKDASGAEFATRAANIFVIGKDLNNLQVTVPKQQGLRMNVIQEREERLIAAEARKNAPARGARRARK,soluble
7,MGSSHHHHHHGGTGENLYFQGGSGTNVPLTQRITAFNNYVGNASNRDRVMSVVQFGAMALAAPAAAAGCPELSAHLSTILHGAAHYRTVTRFSQWLVVAPALTPSGIKSAIASHPNLLVGICKTISTAFFTVFLIGEELVLASKCNMLDPVLGKRFNRIRFVFLFWSNIARLVMSYLLLKSSKYDAVKDNQNEEKAKDHRRKVLGVADGVLQSMFCYTLLKSSAPAGPKYLSAALRSGKAVDIITSLAPPLLVVPSTPQGMLGLAASVPGFMMSVL,not soluble
8,MGSSHHHHHHMAYTNTPHNWGIPRPKNETVPDAGKLYTDLLQKNGGFYLGDTKKKDIYLTFDNGYENGYTGKILDVLKEKKVPATFFVTGHYIKTQKDLLLRMKDEGHIIGNHSWSHPDFTAVNDEKLREELTSVTEEIKKVTGQKEVKYVRPPRGVFSERTLALTKEMGYYNVFWSLAFLDWKVDEQRGWQYAHNNVMTMIHPGSILLLHAISKDNAEALAKIIDDLREKGYHFKSLDDLVKSNQP,soluble
9,MGSSHHHHHHNYNIPTTENLYFQGHMNIGLLEALDQLEEEKGISKEEVIPILEKALVSAYRKNFGNSKNVEVVIDRNTGNIKVYQLLEVVEEVEDPATQISLEEAKKIDPLAEVGSIVKKELNVKNFGRIAAQTAKQVLIQRIRELEKEKQFEKYSELKGTVTTAEVIRVMGEWADIRIGKLETRLPKKEWIPGEEIKAGDLVKVYIIDVVKTTKGPKILVSRRVPEFVIGLMKLEIPEVENGIVEIKAIAREPGVRTKVAVASNDPNVDPIGACIGEGGSRIAAILKELKGEKLDVLKWSDDPKQLIANALAPATVIEVEILDKENKAARVLVPPTQLSLAIGKGGQNARLAAKLTGWKIDIKPIMNL,soluble
10,MGSSHHHHHHSSGLVPRGSAKSFSSQKAYKIVLAGDAAVGKSSFLMRLCKNEFRENISATLGVDFQMKTLIVDGERTVLQLWDTAGQERFRSIAKSYFRKADGVLLLYDVTCEKSFLNIREWVDMIEDAAHETVPIMLVGNKADIRDTAATEGQKCVPGHFGEKLAMTYGALFCETSAKDGSNIVEAVLHLAREVKKRT,soluble
11,MGSSHHHHHHSSGLVPRGSEELQNKLEDVVIDRNLLILGKILGEGEFGSVMEGNLKQEDGTSLKVAVKTMKLDNSSQREIEEFLSEAACMKDFSHPNVIRLLGVCIEMSSQGIPKPMVILPFMKYGDLHTYLLYSRLETGPKHIPLQTLLKFMVDIALGMEYLSNRNFLHRDLAARNCMLRDDMTVCVADFGLSKKIYSGDYYRQGRIAKMPVKWIAIESLADRVYTSKSDVWAFGVTMWEIATRGMTPYPGVQNHEMYDYLLHGHRLKQPEDCLDELYEIMYSCWRTDPLDRPTFSVLRLQLEKLLESLPDV,soluble
12,MGSSHHHHHHSSGLVPRGSEHLKNISPIDGRYKKACGELSAFFSEHALIKHRIIVEVRWLLFLNEEELFFEKVTDHSVEVLNQIATNITDSDIARVKAIEEETNHDVKAVEYFVKEKLKNSKREDLLKIKEYVHYLCTSEDINNVAYATCLKACLNDVVIPCLEKIMLKLKDLAVEYSHVPLLSRTHGQPASSTTFGKEMANFYARIHHHVGVIRRVKVCAKFNGAVGNFNAHKVASKDTDWVNTIGLFLKKHFNLTYSIYCTQIQDHDYICELCDGLARANGTLIDLCVDIWLYISNNLLKLKVKEKEVGSSTMPHKVNPIDFENAEGNLHIANAFFKLFSSKLPTSRLQRDLSDSTVLRNIGSSLAYCLIAYKSVLKGLNKIDIDRRNLEEELNQNWSTLAEPIQIVMKRHNYVDAYEELKQFTRGKVIDQKIMQEFIKTKCAFLPQDVVDQLLELTPATYTGYADYLAKNVERLSGERD,soluble
13,MGSSHHHHHHSSGLVPRGSHMAEQVLPQALYLSNMRKAVKIRERTPEDIFKPTNGIIHHFKTMHRYTLEMFRTCQFCPQFREIIHKALIDRNIQATLESQKKLNWCREVRKLVALKTNGDGNCLMHATSQYMWGVQDTDLVLRKALFSTLKETDTRNFKFRWQLESLKSQEFVETGLCYDTRNWNDEWDNLIKMASTDTPMARSGLQYNSLEEIHIFVLCNILRRPIIVISDKMLRSLESGSNFAPLKVGGIYLPLHWPAQECYRYPIVLGYDSHHFVPLVTLKDSGPEIRAVPLVNRDRGRFEDLKVHFLTDPENEMKEKLLKEYLMVIEIPVQGWDHGTTHLINAAKLDEANLPKEINLVDDYFELVQHEYKKWQENSEQGRREGHAQ,soluble
14,MGSSHHHHHHSSGLVPRGSHMASERPVSTLSSQITGELRELNPQATGSSTSLVGQSLFQHSSLDTSQFGLNASIAEVLNASFKDGMLQNSQLIGEIALNYLPNSVMNSPLPIGINLRINNGAKFEKVILNQAFIERVAPEEFKVNPSFIDSRTLGAIKYSIKEPIAPIVIHPVWRFESHQASVVLTVKMSPSLPDEISQIVIEDLVVFVNIDGANATSALSKPQGSFSKEKKRITWRFKEPVVLTRNGEGQRLIARFITDGLAHESAKGVITKFTISETDNVALPHSGAGSGITLTCQELDENNPFGGEWLDVNTKRTLTTGNYHGLA,soluble
15,MGSSHHHHHHSSGLVPRGSHMASMGRIESAFDLGFIRGMTFGFVGQHGTWGTDEARASMRALAEQPFNWVTLAFAGLMEHPGDPAIAYGPPVTVSDDEIASMAELAHALGLKVCLKPTVNCRDGTWRGEIRFEKEHGPDLESWEAWFGSYSDMMAHYAHVAKRTGCEMFCVGCEMTTAEPHEAMWRETIARVRTEYDGLVTYNCNHGREEHVRFWDAVDLISSSAYYPIDRWRDRVPVLREVAEAHEKPLFFMEVGCPSRSGSGACPWDYRHPGAVCLDEQARFYEAMFAAMPDEPWFKGYMLWEWPWKLYPREAASEDGSYCIYGKPAEDVVARAFSAIANR,soluble
16,MGSSHHHHHHSSGLVPRGSHMASMTGGQQMGRGSMNIAVVTDSTAYIPKEMREQHQIHMIPLQVVFREETYREEIELDWKSFYEEVKKHNELPTTSQPPIGELVALYEELGKSYDAVISIHLSSGISGTFSSAAAADSMVDNIDVYPFDSEISCLAQGFYALKAAELIKNGASSPEDIIKELEEMKKTVRAYFMVDDLAHLQRGGRLSSAQAFIGSLLKVKPILHFDNKVIVPFEKIRTRKKAISRIYELLDEDASKGLPMRAAVIHANREEEAAKIIEELSAKYPHVEFYNSYFGAVIGTHLGEGALGICWCFK,soluble
17,MGSSHHHHHHSSGLVPRGSHMDFEEDYDAEFDDNQEGQLETPFPSVAGADDGDNDNDDSVAENMKKKQKREAVVDDGSENAFGIPEFTRKDKTLEEILEMMDSTPPIIPDAVIDYYLTKNGFNVADVRVKRLLALATQKFVSDIAKDAYEYSRIRSSVAVSNANNSQARARQLLQGQQQPGVQQISQQQHQQNEKTTASKVVLTVNDLSSAVAEYGLNIGRPDFYR,soluble
18,MGSSHHHHHHSSGLVPRGSHMEQMHSLESSLPPEQPPTKQAIESLNLELSQEFKLAANAVTRLYRVANEKNSLTKHQGYLTCLDDILCALDSNVTADELRAWCYKRRNDILSNSQDKSLNPVKERERKLNKFSENQHRENEAHKEPFEKDSAVKYNFSFNESNGDLSNINENIAPKFRLSMPPLSVEHPPRNASRIKSWKARTINHGRGDTRNLNDITGLGHERERDRENTHYEKKPKLDSDSEVDIRSFRQDMDL,soluble
19,MGSSHHHHHHSSGLVPRGSHMLEDPGEGQDIWDMLDKGNPFQFYLTRVSGVKPKYNSGALHIKDILSPLFGTLVSSAQFNYCFDVDWLVKQYPPEFRKKPILLVHGDKREAKAHLHAQAKPYENISLCQAKLDIAFGTHHTKMMLLLYEEGLRVVIHTSNLIHADWHQKTQGIWLSPLYPRIADGTHKSGESPTHFKANLISYLTAYNAPSLKEWIDVIHKHDLSETNVYLIGSTPGRFQGSQKDNWGHFRLKKLLKDHASSMPNAESWPVVGQFSSVGSLGADESKWLCSEFKESMLTLGKESKTPGKSSVPLYLIYPSVENVRTSLEGYPAGGSLPYSIQTAEKQNWLHSYFHKWSAETSGRSNAMPHIKTYMRPSPDFSKIAWFLVTSANLSKAAWGALEKNGTQLMIRSYELGVLFLPSALGLDSFKVKQKFFAGSQEPMATFPVPYDLPPELYGSKDRPWIWNIPYVKAPDTHGNMWVPS,soluble
